Experiments:
TGFb1 = molecular target: T1, TGFb1 (Homo sapiens, UniProt P01137); test: ELISA binding of ligand to immobilized CLPTM1 peptide fragments; conditions: biotinylated peptide immobilized at 1 μM; ligand 100 ng/ml; OD 450-620 measured
T1 construct: purchased Abcam
Experimental: (§1) Biotinylated synthetic peptide fragments from CLPTM1 (JPT peptides, Germany) were immobilized in a streptavidin 96 well plate (#15500 Pierce) at 1 μM in PBS over night at +4° C. Plate was then washed 4 times in 300 μl PBS with 0.05% tween-20 (wash buffer). The plate was then blocked with PBS 1% BSA and 0.05% tween-20 (blocking buffer) for 1.5 hours at room temperature, then washed 4 times in wash buffer. Ligands GDF15, TGFb1, TGFb2 and TGFb3 (Abcam) were added in blocking buffer at 100 ng/ml and incubated at room temperature for 2 hours. The plate was then washed 8 times in 300 μL wash buffer with 2× NaCl. An anti-GDF15 antibody was added at 1 μg/ml (R&D Systems, goat polyclonal) or a pan-specific anti-TGFb antibody (R&D Systems, mouse 1 D11), and the plate incubated in blocking buffer for 1 hour at room temperature followed by washing with 4×300 μl wash buffer. HAF017 anti-goat-HRP antibody (to detect the anti-GDF15 antibody) or Santa Cruz sc-2005 Goat anti-mouse-HRP (to detect the pan-specific anti-TGFb antibody) was added and the plate incubated for 1 hour in blocking buffer followed by a wash. TMB substrate was added and stopped after 15 minutes with H2SO4. OD 450-620 was measured in an ELISA reader.

TGFb3 = molecular target: T2, TGFb3 (Homo sapiens, UniProt P10600); test: as above; conditions: biotinylated peptide immobilized at 1 μM; ligand 100 ng/ml; OD 450-620 measured
T2 construct: purchased Abcam
T2 sequence (P10600 301-412 limits assumed): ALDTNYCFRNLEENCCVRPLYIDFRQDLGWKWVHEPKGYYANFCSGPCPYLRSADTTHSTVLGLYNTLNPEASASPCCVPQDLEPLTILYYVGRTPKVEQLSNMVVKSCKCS
Experimental: as §1

GDF15 = molecular target: T3, GDF15 (Homo sapiens, UniProt Q99988); test: as above; conditions: biotinylated peptide immobilized at 1 μM; ligand 100 ng/ml; OD 450-620 measured
T3 construct: purchased Abcam
T3 sequence (Q99988 195-308): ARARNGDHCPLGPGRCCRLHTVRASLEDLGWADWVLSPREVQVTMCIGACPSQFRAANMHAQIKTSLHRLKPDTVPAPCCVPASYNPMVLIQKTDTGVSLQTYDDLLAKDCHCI
Experimental: as §1

TGFb2 = molecular target: T4, TGFb2 (Homo sapiens, UniProt P61812); test: as above; conditions: biotinylated peptide immobilized at 1 μM; ligand 100 ng/ml; OD 450-620 measured
T4 construct: purchased Abcam
T4 sequence (P61812 303-414 limits assumed): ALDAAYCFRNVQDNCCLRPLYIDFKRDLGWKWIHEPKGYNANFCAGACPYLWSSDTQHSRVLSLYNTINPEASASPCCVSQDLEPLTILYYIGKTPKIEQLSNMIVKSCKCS
Experimental: as §1

TGF-β proteins = test: ELISA of Example 1, binding; conditions: result in words
Experimental: as §1

M2 polarized macrophages = test: isPLA of TBK1 after ligand stimulation; assay type: cell-based, human; conditions: 10 ng/ml o/n, vs untreated control
Experimental: Human primary M2 polarized macrophages was derived from PBMC obtained from healthy volunteer blood donors. CD14+ cells were isolated using an EasySep CD14 Positive Selection Kit, maintained in RPMI-1640 medium supplemented with 10% FBS, L-Glutamine and Pen-strep. Cells were cultivated for 6 days in the presence of 50 ng/ml recombinant macrophage colony-stimulating factor (M-CSF, R&D Systems) in order to polarize the cells towards an M2 subtype.
For in situ proximity ligation assay (isPLA) experiments the cells were re-plated into 8-well slides (Lab-Tek™ II Chamber Slides, Thermo Fisher).
Cells were stimulated with either TGFB1, TGFB2, TGFB3 at 10 ng/ml. For isPLA, new medium was added, with individual ligands added to separate wells, and the cells incubated o/n prior to fixation in 3% formaldehyde solution for 20 minutes on ice the following day. Fixed cells were washed extensively in PBS and lysed in PBS with 1% Triton at room temperature for 20 minutes. The cells were blocked with Duolink blocking solution (Sigma) and primary antibodies at 1 μg/ml were added o/n. […] The slides were analysed using a Zeiss inverted epiflouroscence microscope set at 20× magnification. DAPI, FITC and CY3.5 channels were recorded. […]

NK-92 cells = test: Proseek secreted proteins, NK-92 culture; assay type: cell-based; conditions: NK92 culture
Experimental: Secreted proteins from cell cultures where quantified using multiplexed proximity extension assay, Proseek (Assarsson E et al PlosOne 2014) by Olink Proteomics AB (Uppsala Sweden). Data is presented as Normalized Protein Expression (NPX log 2-scale). The Oncology I v2 92-plex panel was run. NK-92 cells were cultured in RPMI-1640 supplemented with 10% FBS, 12.5% Horse serum, L-glutamine, IL2 and 3-mercaptoethanol.

PBMC = test: Proseek secreted proteins, PBMC culture; assay type: cell-based
Experimental: Secreted proteins from cell cultures where quantified using multiplexed proximity extension assay, Proseek (Assarsson E et al PlosOne 2014) by Olink Proteomics AB (Uppsala Sweden). Data is presented as Normalized Protein Expression (NPX log 2-scale). The Oncology I v2 92-plex panel was run.
A cell suspension of heparinized peripheral blood was diluted 1:1 and placed on a Ficoll Paque Plus. Cells were centrifuged at 400×g for 30 minutes and the PBMC layer was transferred to a 50 ml tube of PBS and centrifuged for 7 min at 250×g.

MCF7 breast cancer cells = test: Western blot of PTP1B after ligand stimulation; assay type: cell-based, human; conditions: ligand 10 ng/ml, vs untreated control
MCF7 cells = test: Proseek secreted proteins, MCF7 culture; assay type: cell-based, human; conditions: FIG. 6A: exosomes from MCF7 cells, GDF15 1.5 μg/ml 1 hr
Experimental: Secreted proteins from cell cultures where quantified using multiplexed proximity extension assay, Proseek (Assarsson E et al PlosOne 2014) by Olink Proteomics AB (Uppsala Sweden). Data is presented as Normalized Protein Expression (NPX log 2-scale). The Oncology I v2 92-plex panel was run. MCF7 cells were cultured in serum-free conditions (No FBS added to DMEM) overnight prior to ligand stimulation, and media was replaced 3 times before stimulation to avoid exosomes from FBS. Cells were either treated with control (PBS) or biologically active GDF15 (Abcam) at 1.5 μg/ml for 1 hr at 37° C. For analyses of exosomes in FIG. 6A, conditioned medium was pre-cleared by centrifugation at 14,000×g for 10 min at 4° C., followed by filtration with a […] filter to avoid contaminants from cell debris, followed by ultracentrifugation at 100,000×g for 2 hrs. Pelleted exosome fraction was lysed with 1% Triton X-100 at 4° C., samples diluted in order to have 0.3% Triton concentration and analysed by Proseek multiplex panel as described above.

T1 sequence (P01137 279-390 limits assumed): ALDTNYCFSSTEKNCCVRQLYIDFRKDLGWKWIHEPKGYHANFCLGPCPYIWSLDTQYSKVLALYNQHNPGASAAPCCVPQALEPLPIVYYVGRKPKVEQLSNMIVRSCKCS

Molecule | ELISA OD450 TGFb1 (TGFb1) | ELISA OD450 TGFb3 (TGFb3) | ELISA OD450 GDF15 (GDF15) | ELISA OD450 TGFb2 (TGFb2) | binding to TGF-β proteins (TGF-β proteins) | also measured
GDYYPIIYFNDYWNLQKDYYG (listed as Homo sapiens) [SEQ ID NO: 28] | 0.152 | 0.065 | 0.140 | 0.019 | binding | 
SGDYYPIIYFNDYWNLQKDYYPINESLA (listed as Homo sapiens) [SEQ ID NO: 40] | 0.177 | 0.007 | 0.021 | 0.009 | favourable binding | 
PLDQYVKFDAVSGDYYPIIYFNDYWNLQKDYYPINESLA (listed as Homo sapiens) [SEQ ID NO: 39] | 2.102 | 0.300 | 0.779 | 1.630 | favourable binding | 
TKSGFHPDPRQKALYRRLATVHMSRMINKYKRRRFQKTKN (listed as Homo sapiens) [SEQ ID NO: 37] | 0.015 | 0.041 | 0.055 | 0.009 | binding has also been observed | 
KALYRRLATVHMSRMINKYKG (listed as Homo sapiens) [SEQ ID NO: 17] | 0.026 | 0.0060 | 0.042 | 0.013 | binding | 
ARSAVVAAGGGSSGQVTSNGSIGRDPPAETQPQNPPAQPA (listed as Homo sapiens) [SEQ ID NO: 34] | 0.043 | 0.018 | 0.220 | 0.025 |  | 
38 (VSGDYYPIIYFNDYWNLQKDYYPINESLASLPLRVSFC; listed as Homo sapiens) [compound 38] |  | 0.091 |  |  |  | 
LDQYVKFDAVSGDYYPIIYFG (listed as Homo sapiens) [SEQ ID NO: 21] | 0.022 | 0.020 | 0.034 | 0.002 | binding | 
VSGDYYPIIYFNDYWNLQKDYYPINESLASLPLRVSFC (listed as Homo sapiens) [SEQ ID NO: 38] | 0.032 | 0.029 | 0.061 | 0.014 | favourable binding | 
TGFb1: TGF-β isoform 1, ligand for CLPTM1 |  |  |  |  |  | TBK1 level (M2 polarized macrophages): reduced
YPINESLASLPLRVSFCPLSG (listed as Homo sapiens) [SEQ ID NO: 27] | 0.011 | 0.068 | 0.098 | 0.005 | binding | 
36 (DTLMNLHVYISEHEHFTDFNATSALFWEQHDLVYGDWTSG; listed as Homo sapiens) [compound 36] |  | 0.095 |  |  |  | 
DTLMNLHVYISEHEHFTDFNATSALFWEQHDLVYGDWTSG (listed as Homo sapiens) [SEQ ID NO: 36] | 0.010 | 0.019 | 0.023 | 0.006 | binds | 
NAWQVIKGVLFRIFIIWAISSWFRRGPAPQDQAGPGGA (listed as Homo sapiens) [SEQ ID NO: 35] | 1.536 | 0.151 | 0.507 | 0.164 |  | 
LWRWQLYAAQSTKSPWNFLGDELYEQSDEEQDSVKVALLETNP (listed as Homo sapiens) [SEQ ID NO: 33] | 0.013 | 0.011 | 0.033 | 0.008 |  | 
SGDYYPIIYFNDYWNLQKDYYPINESLASLPLRVSFCPLS (listed as Homo sapiens) [SEQ ID NO: 32] | 0.010 | 0.014 | 0.022 | 0.007 | favourable binding | 
TGFb3: TGF-β isoform 3, ligand for CLPTM1 (protein) ALDTNYCFRNLEENCCVRPLYIDFRQDLGWKWVHEPKGYYANFCSGPCPYLRSADTTHSTVLGLYNTLNPEASASPCCVPQDLEPLTILYYVGRTPKVEQLSNMVVKSCKCS |  |  |  |  |  | Caspase-3 secretion (NK-92 cells): increased; CXCL9 secretion (PBMC): reduced; CXCL11 secretion (PBMC): reduced; PTP1B level (MCF7 breast cancer cells): significantly reduced
GDF15: Growth and Differentiation Factor 15, TGF-β superfamily ligand of CLPTM1 (protein) ARNGDHCPLGPGRCCRLHTVRASLEDLGWADWVLSPREVQVTMCIGACPSQFRAANMHAQIKTSLHRLKPDTVPAPCCVPASYNPMVLIQKTDTGVSLQTYDDLLAKDCHCI |  |  |  |  |  | Midkine (MK) expression (MCF7 cells): increased; HB-EGF secretion (PBMC): increased; IFNγ expression (PBMC): reduced

— patent US11406665B2, “Therapeutic peptides that target TGF-beta interaction” (GENAGON THERAPEUTICS AB, priority 2017, dated 2022)
